B1: unnamed (parent)
chain 1: MATDIDMLIDLGLDLSDSDLDEDPPEPAESRRDDLESDSSGECSSSDEDMEDPHGEDGPEPILDAARPAVRPSRPEDPGVPSTQTPRPTERQGPNDPQPAPHSVWSRLGARRPSCSPEQHGGKVARLQPPPTKAQPARGGRRGRRRGRGRGGPGAADGLSDPRRRAPRTNRNPGGPRPGAGWTDGPGAPHGEAWRGSEQPDPPGGQRTRGVRQAPPPLMTLAIAPPPADPRAPAPERKAPAADTIDATTRLVLRSISERAAVDRISESFGRSAQVMHDPFGGQPFPAANSPWAPVLAGQGGPFDAETRRVSWETLVAHGPSLYRTFAGNPRAASTAKAMRDCVLRQENFIEALASADETLAWCKMCIHHNLPLRPQDPIIGTTAAVLDNLATRLRPFLQCYLKARGLCGLDELCSRRRLADIKDIASFVFVILARLANRVERGVAEIDYATLGVGVGEKMHFYLPGACMAGLIEILDTHRQECSSRVCELTASHIVAPPYVHGKYFYCNSLF
chain 2: not shown

Variants of: B1
Assay: co-immunoprecipitation with densitometry of Western blot
Conditions: 293T cells transfected with GFP-tagged ICP27 and its mutants, IP with polyclonal GFP-specific antibody and Protein A agarose, 3 independent experiments, read off a plot, scale: relative binding normalised against GFP control

**Q.** For chain 1 R107A L108A, which response is on record?
**A.** 0.37

**Q.** chain 1 W105A R107A L108A was tested. Which response did it give?
**A.** 0.3

**Q.** For chain 1 W105A, which response is on record?
**A.** 0.32
